Test results from publication PMC2881153.
Read-outs that look alike come from different tables or passages of the source.

How the values were obtained:
[1] = molecular target: T1, Fl-Imp3p;Rh-Imp4p (Saccharomyces cerevisiae;Saccharomyces …, UniProt P32899;P53941 1-183;1-290, |); assay: ssFRET
T1 sequence 1: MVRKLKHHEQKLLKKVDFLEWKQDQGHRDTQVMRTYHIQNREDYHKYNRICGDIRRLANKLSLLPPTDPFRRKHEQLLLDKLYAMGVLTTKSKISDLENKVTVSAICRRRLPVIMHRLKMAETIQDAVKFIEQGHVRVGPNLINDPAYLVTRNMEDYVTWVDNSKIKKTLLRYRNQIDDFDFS
T1 sequence 2: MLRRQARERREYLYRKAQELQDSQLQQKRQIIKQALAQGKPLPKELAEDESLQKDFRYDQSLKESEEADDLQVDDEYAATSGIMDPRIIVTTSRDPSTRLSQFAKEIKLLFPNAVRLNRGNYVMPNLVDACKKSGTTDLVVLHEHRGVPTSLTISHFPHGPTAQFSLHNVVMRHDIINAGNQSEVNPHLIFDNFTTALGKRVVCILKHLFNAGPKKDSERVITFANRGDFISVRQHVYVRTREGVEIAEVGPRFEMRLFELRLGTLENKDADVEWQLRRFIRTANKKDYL

[2] = molecular target: T2, Imp3p (Saccharomyces cerevisiae, UniProt P32899 1-183); assay: trFRET
T2 sequence: T1 sequence 1

[3] = molecular target: T3, Imp3p;Imp4p (Saccharomyces cerevisiae;Saccharomyces …, UniProt P32899;P53941 1-183;1-290, |); assay: trFRET
T3 sequence 1: T1 sequence 1
T3 sequence 2: T1 sequence 2

[4] = molecular target: T3, Imp3p;Imp4p; assay: trFRET; remark: listed apart in the source

B1: U3 MINI (structured_RNA)
RNA: GGACGUACUUCAUAGGAUCAUUUCUAUAGGAAUCGUCACUCUUUGACU
binding result [1]: binds

B2: Fl-U3 MINI-Rh (structured_RNA)
RNA: B1 RNA
binding result [2]: binds | binding result [3]: binds

B3: Fl-U3 MINI-Rh with 18S (dsRNA)
RNA 1: B1 RNA
RNA 2: GGUUGAUCCUGCCAGUA
binding result [4]: binds
